Key:
human claudin 3 [1] = biological target: T1, human claudin 3 (human, UniProt O15551 1-220); assay: LigandTracer Green, FITC-conjugated antibody on hCLDN3/TOV-112D cells against TOV-112D, 1:1 two state model (ka1)
T1 construct: cell lysate in the immunoprecipitation; also called CLDN3; hCLDN3
T1 sequence: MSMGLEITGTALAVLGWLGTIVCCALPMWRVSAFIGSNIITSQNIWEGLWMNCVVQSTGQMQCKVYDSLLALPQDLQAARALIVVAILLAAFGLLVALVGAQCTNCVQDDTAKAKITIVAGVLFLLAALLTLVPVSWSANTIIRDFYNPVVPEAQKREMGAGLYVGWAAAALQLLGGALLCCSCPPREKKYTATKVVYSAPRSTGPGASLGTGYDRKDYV

human claudin 3 [2] = biological target: T1, human claudin 3; assay: LigandTracer Green, FITC-conjugated antibody on hCLDN3/TOV-112D cells against TOV-112D, 1:1 two state model
human claudin 3 [3] = biological target: T1, human claudin 3; assay: LigandTracer Green, FITC-conjugated antibody on hCLDN3/HEK293 cells against HEK293, 1:1 two state model (ka1)
human claudin 3 [4] = biological target: T1, human claudin 3; assay: LigandTracer Green, FITC-conjugated antibody on hCLDN3/HEK293 cells against HEK293, 1:1 two state model
human claudin 3 [5] = biological target: T1, human claudin 3; assay: LigandTracer Green, FITC-conjugated antibody on hCLDN3/TOV-112D cells against TOV-112D, 1:1 two state model (kd1)
human claudin 3 [6] = biological target: T1, human claudin 3; assay: LigandTracer Green, FITC-conjugated antibody on hCLDN3/HEK293 cells against HEK293, 1:1 two state model (kd1)

kon (human claudin 3 [1]): 47400 M⁻¹ s⁻¹
Kd (human claudin 3 [2]): 2.35 nM
kon (human claudin 3 [3]): 46600 M⁻¹ s⁻¹
Kd (human claudin 3 [4]): 4.03 nM
koff (human claudin 3 [5]): 0.000337 s⁻¹
koff (human claudin 3 [6]): 0.000671 s⁻¹
B1: 4G3 IgG antibody (antibody, V domains shown)
VH: EVQLLESGGGLVQPGGSLRLSCAASGFTFSSYAMSWVRQAPGKGLEWVSIINPSGASTSHAQRFQGRFTISRDNSKNTLYLQMNSLRAEDTAVYYCARYGRYGSFDIWGQGTLVTVSS
VL: QSVLTQPPSASGTPGQRVTISCSGSTSNIGRNYVSWYQQLPGTAPKLLIYDTSNKHFGVPDRFSGSKSGTSASLAISGLRSEDEADYYCQSYDSSKVVFGGGTKLTVL
